Measured values as given in the nanobody polyreactivity screen of Harvey et al. (2022).

assay: yeast display, Sf9 membrane polyspecificity reagent, FACS + sequencing; frameworks hold sequencing errors
How it was run: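 Polyreactivity labels are assigned by the sorting gate from which each nanobody was recovered. The gates were low and high (top ~1%), set on anti-HA fluorescence for expression and streptavidin fluorescence for reagent binding. Before sorting, galactose-induced (36–48 hours) yeast display cells were stained for 1 hour at 4 °C with 10% biotinylated, detergent-solubilized Sf9 membrane reagent.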

Sequence	polyreactivity (PSR sort gate)
QFQLVESGGGLDQAGGSLRLSCAASGRTFAYYALGWYRQAPGKESELVAAISSGGGSTYYADSVKGRFTISRDNAKYTFYLQMNSLKPEDTAVYYCAKERSSSRSGGTYYYWGQGTQVTVSS	high polyreactivity
QFQLVESGGGLDQAGGSLRLSCAASGRTFHAYAMGSYRQAHGKGRELVAAITRTGTTHYADSVKGRFTISRDNAKNTVFLQMNSLKPEDTAVYYCAAQHVRVAAQFVLQGYDYWGQGTQVTVSS	low polyreactivity
QFQLVESGGGLFQAGGSLRLSSAASGITFRYYAMGWYRQAPGKERELVAAITRSGSSTFYADSVKGRFTISLDNAKNTVYLQMNSLKPEDTAVYYCAAESVRAVFPDRYKYWGQGTQVTVSS	high polyreactivity
QFQLVESGGGLGQAGGSNRLSCAASGRIFNIYAMGCYRQSPGKERELVADITSGGTKYADSVKGRFTISRDNAKNTVYLQMNSLKPEDTAVDYCAAEYLYYGGVDYWGQGTQVTVSS	high polyreactivity
QFQLVESGGGLLQAGGSLRLSCAASGRIFVPYVMGWYRQAPGKERELVASISDTDTSTYYADSVKGRFTISRDIAKNIVYLQMNSLKPEDTAVYYWNVDYWGQGTQVTVSS	low polyreactivity
QFQLVESGGGLVHAGGSLRLSCAASGITFQWNSMGWYRQAPGKERELVAVISSDGRTYYADSVKGRFTISRDNAKYTVYLQMNSLKPEDTAVYYCNADRSVIHRGYIWQPGRNDYWGHGTQVTVSS	low polyreactivity
QFQLVESGGGLVKAGGSLRLSCAASGLTNIYNARGWYRQAPGKERELVAAISGNGGDTYSADSVKGRFTISRDNAKNTVYLQMNSLKPEDTAVYYCAADYAYTPITWDEYWGQGTQVTVSS	low polyreactivity
QFQLVESGGGLVLAGGSLRLSCAASGRTYLVNAMGWYRQAPGKERELVAVITRGGSTNYADSVKGRFTISRDNAKNTDYLQMNSLKPEDTAVYYCAKQFSPYRSYGPVVRYDYWGLGTQVTVSS	low polyreactivity
QFQLVESGGGLVQAGASLRLSCAASGRIFEIYAMGWYRQAPGKDRELVAASSWRGVSTYYADSVKGRFTITRDNAKKTVYLQMNSLKPEDTAVYYCNKDVDYFWYVEYDYWGHGTQVTVSS	low polyreactivity
QFQLVESGGGLVQAGGILRLSCDASGSILARYALGWYRQAPGKERVLVAAISSRGGSTYYADSVKGRFSISRDNAKNTVYLQMNSLKPEDTAVYYCASYVYLQVEYDYWGQGTQVTVSS	low polyreactivity
QFQLVESGGGLVQAGGSIRSSCAASGIIFWGNAMGWYRQAPGKESELVATITGRGGSTYYADSVKGRFTISRDNAKNTVYLQMNSLKPEDTAVYYCNADSSRYYRALEYWGQGTQVTVSS	low polyreactivity
QFQLVESGGGLVQAGGSLPLSCAASGRTFGGNTMGRYREAPGKERELVAAISRRGGSTYYADSVKGRFTISRDNAKNTVYLQMNSLKPEDTAVYYCNKDGPSYSSYDYWGQGTQVTVSS	low polyreactivity
QFQLVESGGGLVQAGGSLRLICAASGITFYPNDMGWYRQSPGKERELVAAITTNDGDTYYADSVKGRFTISRDNAKNTVYLQMNSLKPEDTAVYYCAADSGSTSEYEYWGKGTQVTVSS	low polyreactivity
QFQLVESGGGLVQAGGSLRLICAASGLTFVYNDMGWYRQAHGKERELVAGITSGGSTYYADSVKGRFTISRDNAKNTVYLQMNSLKPEDTAVYYGAADGLSTDLFRPDSIVDYWGQGTQVTVSS	low polyreactivity
QFQLVESGGGLVQAGGSLRLRCAASGQTFRYYAMGWYRQAPGKERELVAAITRRGSTYYADSVKGRFTISRDNAKNTVNLQINSLKPEDTAVYYCATVTGFHSSPLRDLDYWGQGTQVTVSS	high polyreactivity
QFQLVESGGGLVQAGGSLRLSCAASGFIFTRYVMGWYRQAPGKERELVAAINWSGDSTYYADSVKGRFTISRDYAKNTVYLQLNSLKPEDTAVYYCNADYGWVDTYTNYDYWGQGTQVTVSS	low polyreactivity
QFQLVESGGGLVQAGGSLRLSCAASGFTFYYYAMGWYRQAPGKERELVAAISSSGSSTYYADSVKGRFTISRVNAKNTVYLQMNSLKREDTAVYYWNARRYEYLWGDYWGQGTQVTVSS	high polyreactivity
QFQLVESGGGLVQAGGSLRLSCAASGGTFGNNDMGWYRQAPGKERELVAAIRSAGTTYYADSVKGRFTISRDNAKNTVYLQMNSLKPEDTAVYYCNADTTGYWSYGFQYYGEDYWGQGTQVTVSS	low polyreactivity
QFQLVESGGGLVQAGGSLRLSCAASGITFGSSAMGWYRQAPGKDRELVAAIDTSGDDTYYADSVKGRFTISRDNAKNTVYLQMNSLKPEDTAVYYCNAVSTASDEYDYWGQGSQVTVSS	low polyreactivity
QFQLVESGGGLVQAGGSLRLSCAASGITFGWYAMGWYRKATGKETELVASISSSGSTNYADSVKGRFTISRDNAKNTVYLQMNSLKPEDTAVYYCNKDYLLRQYYIYVIEGDYWGQGTLVTVSS	low polyreactivity
QFQLVESGGGLVQAGGSLRLSCAASGLIFPKYAMGWYRQAPGKEREFVAAISGRGGTTYYADSVKGRFTISRDNAKNTVYLQMNSLKPEDTAVYYCAAGGPWANIYGNGYWGQGTQVTVSS	high polyreactivity
QFQLVESGGGLVQAGGSLRLSCAASGLTIDPNAMGWYRQAPGKERELVATITQTDGSTYYADSVKGRFTISRDNAKNTVYLQMNSLKPEDTAVYYCVGLVSRGSDYWGQGTQVTVSS	low polyreactivity

Sequence	polyreactivity (PSR sort gate)
QFQLVESGGGLVQAGGSLRLSCAASGRIFGENARGWYSQATRKEREFVAVISISDASTYYADSVKGRFTITRDNAKNTVYLQMNSLKREDTAVDYCAADLTDFLYVASDYWGQGTQVTVSS	low polyreactivity
QFQLVESGGGLVQAGGSLRLSCAASGRIFNYYAMGWYRQAPGKERELVAAISARGGSTYYADSVKGRFTISRDNAKNTVYLQMNSLKPEDTAVYYCAVSSGSYGYGYWGQGTQVTVSS	high polyreactivity
QFQLVESGGGLVQAGGSLRLSCAASGRIFRSNAMVWYRQAPGKERELVAAISWSGGSTYYADSVKGRFTISRDNAKNTVYLQMNSLKPEDTAVFYCAARYRGSRYDYWGQGTQVTVSS	high polyreactivity
QFQLVESGGGLVQAGGSLRLSCAASGRIFVPNAMGWYRQAPGKEREFVAAINSGGSTYYADSVKGRFTISRDNAKNTVYLQMNSMKPEDTAVYYCAAVDFSSGYYGRLARYYYWGQGTQVTVSS	high polyreactivity
QFQLVESGGGLVQAGGSLRLSCAASGRILSIYAMGWYSQAPGKESEMVAGITGGGRTHSADSVKGRFTISRDNAKNTVYLQMYSLKPEDTAVYSCSSLWRYQYRSKLSYYYWGQGTQVTVSS	high polyreactivity
QFQLVESGGGLVQAGGSLRLSCAASGRILYPNTMGWYRQAPGKEREVVAAISGSGSRTYYADSVKGRFTISRDNAKNNVYLQMNSLKPEDTAVYYCADRGDGTVGVSSPGKRRHYYWGQGTQVTVSS	high polyreactivity
QFQLVESGGGLVQAGGSLRLSCAASGRIRDNARGWYRQAPGKERELVAAISSSGGSTYYADSVKGRFTISRDNAKNTVYLQMNSLKPEDTAVYYCNAVRTGKIFGSWGQGTQVTVSS	high polyreactivity
QFQLVESGGGLVQAGGSLRLSCAASGRIVGRNAMGWYRQAPGKERELVAAISGNGGSTYYADSVKGRFTISRDNAKINVYLQMNSLKPEDTAVYYCATKYFSRMDYWGKGTQVTVSS	high polyreactivity
QFQLVESGGGLVQAGGSLRLSCAASGRIYGYYALGWYRQAPGQERELVATITFGGGSTYYTDSVKGRFTISRDNAKNTVSLQMNSLKPEDTALYYCAADSGYLGIYGDEYSWGHGTQVTVSS	low polyreactivity
QFQLVESGGGLVQAGGSLRLSCAASGRSFNRNAMGWYRQAPGKERELVAAISRSGTRTYYADSVKGRFTISRDNAKNTVYLQMNSLKPEDTAVYYCNALRVDGGDYWGQGTQVTVSS	high polyreactivity
QFQLVESGGGLVQAGGSLRLSCAASGRTFASNAMGWYRQAPGKERELVADITWDGGRTYYADSVKGRFTISRDNAKNTVYLQMNSLKPEDTAVYYCAARDTFPRRYGYWGQGTQVTVSS	high polyreactivity
QFQLVESGGGLVQAGGSLRLSCAASGRTFGFNAMGWYIQAPGKERELVAAISGSGGRTYYADSVKGRFTISRDKPKNTVYLQMNSLKPEDTAVYYCAAGARRGGSGYLGQGTQVTVSS	high polyreactivity
QFQLVESGGGLVQAGGSLRLSCAASGRTFKVYAMGWYRQAPGKERELVAAITGGGSTNYADSEKGRFTISRDNAKNTVYLQMNRLKAEDTAVYYGNARYYYRLVKWSRFSSYDYWGQGTQVTVSS	low polyreactivity
QFQLVESGGGLVQAGGSLRLSCAASGRTFSRTAMGWYRQAPGKERELVAAITKGGGSTYYADSVKGRFTISRDNAKNTVYLQMNSLKPEDTAVYYCAAYKPSTRRYDYWGQGTQVTVSS	high polyreactivity
QFQLVESGGGLVQAGGSLRLSCAASGRTFWYYDMGWYRQAPGKERELFATITSGGSTNYADSVKGRFTISRDNAKNTVYLQMNSLKPEDTAVYYCAAARWRWQLARDDYWGQGTQVTLSS	high polyreactivity
QFQLVESGGGLVQAGGSLRLSCAASGSIFYGYAMGWYRQAPGKERELVAAITSSNGSTYYADSVKGRFTISRDNEKNTVYLQMNSLKPEDTAVYYCAADVHGSYYIKPNVWYDYWGQGTQVTVSS	low polyreactivity
QFQLVESGGGLVQAGGSLRLSCAASGSIFYGYTMGWYRQEPGKERELLAAIRKSGGSTNYADSVKGRFTISRDNAKNTVYLQMNSLKPEDTAVYYCSASYYRGRGYYWGQGTQVTVSS	high polyreactivity
QFQLVESGGGLVQAGGSLRLSCAASGSTFAFYAMGRYRQAPGKERELVPAINLGGGSTYYAASVKGRFTISRDNAKNTVYLQMNSLKPEDTAVYYCAADFWTISWPVFDTYEYWGQGTQVTVSS	low polyreactivity
QFQLVESGGGLVQAGGSLRLSCAASGSTFIRYAMGWYRQAPGKERELVAAISRSGGNTYYADSVKGRFTISRDKAKNTVYLQMNSLKPEDTAVYYCNKDRQQALNYWGQGTQVNVSS	high polyreactivity
QFQLVESGGGLVQAGGSLRLSCAASGSTFITNAMGCYRQAPGKERELVASITRGAGSTYYADSVKGRITISRDNAKNTVYLQMNSLKPEDTAVYYCRLAPRYRKGGYWGQGTQVTVSS	high polyreactivity
QFQLVESGGGLVQAGGSLRLSCAASGSTFIYYTMGWYRQAPGKERELVAAIPSSGGSTYYADSVKGRFTISRDNAKNTVYFQMNSLKPEDTAVYYCAADGTYIKFAKLYRRYDYWGQGTQVTVSS	low polyreactivity
